Measurements as given in publication PMC10171809.

Target: HEXIM1 (UniProt O94992)
Test: co-immunoprecipitation
Details: reference: wild type; sites S43

METTL3 (from UniProt Q86U44) S43A
binding against the reference: stronger
